Results reported in US20170081378A1 (INDIANA UNIVERSITY RESEARCH AND TECHNOLOGY, published 2017).
Where a chain is given by its changes, count along the chain named. Where no end group is shown, it is not given here.

T1: fLL-37 (LL-37 with 5' carboxyfluorescein coupled to the N-terminus) (human, 5' carboxyfluorescein coupled to the N-terminus)
T1 construct: Custom synthesized labelled peptide (AnaSpec), used at 0.1 uM in the fluorescence polarization assay; also called fluorescein-labeled LL-37
T1 peptide: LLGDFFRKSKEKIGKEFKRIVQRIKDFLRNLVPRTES

B1: LL-29 (peptide)
peptide: LLGDFFRKSKEKIGKEFKRIVQRIKDFLR
notes: N-terminal 29 residues of LL-37 (lacks the C-terminal 8 residues)
B2: LL-37 (peptide)
peptide: T1 peptide
notes: Unlabelled synthetic 37-residue peptide; also called WT LL-37; native LL-37
B3: Peptide A (peptide)
peptide: T1 peptide with N30K, R34Q, T35P, S37Q
notes: LL-37 with the C-terminal four residues replaced with those from mCRAMP

Tests used:
[1] = target: fLL-37 (LL-37 with 5' carboxyfluorescein coupled to the N-terminus) (human); test: fluorescence polarization, fLL-37 0.1 uM, peptide titrated 1-1000 nM, phosphate buffer pH 7.0
[2] = target: T1, fLL-37 (LL-37 with 5' …); test: fluorescence polarization (FIG. 11)
[3] = target: T1, fLL-37 (LL-37 with 5' …); test: fluorescence polarization, fLL-37 0.1 uM, peptide titrated 1-1000 nM, phosphate buffer pH 7.0
[4] = target: T1, fLL-37 (LL-37 with 5' …); test: FRET between fLL-37 and rLL-37 (1:1) in endosomes of BEAS-2B cells, confocal microscopy
Method: FIG. 3. Oligomerization of LL-37 depends upon pH. A) LL-37 forms particles that are micrometers in hydrodynamic radii at neutral pH and the particles dissociate when the pH is decreased. All assays were performed with LL-37 at a concentration of 1 ᵢlM in phosphate buffer. […] C) LL-37 particles will dissociate in the presence of salt. The hydrodynamic radius of ˜1 μM LL-37 was determined in a pH 7.4 phosphate buffer adjusted to contain the concentration of NaCl indicated. D) fLL37 and rLL-37 colocalize in endosomes of BEAS-2B cells. fLL-37, rLL-37, and poly(I:C) were added to BEAS-2B cells that were either mock-treated or treated with ammonium chloride and imaged 60 min later by excitation at 488 nm or at 561 nm. The micrograph images were then merged to show the co-localization of the two fluorescent peptides. E) Co-localization of fLL-37 and rLL-37 in BEAS-2B cells was quantified in the absence or presence of endosomal acidification inhibitors. To detect both peptides, the cells were excited with 488 and 561 nm laser. To determine FRET between the two peptides, the cells were excited at only 488 nm laser, which activates fluorescence of fLL-37 and the emissions for both fluorescein and rhodamine were determined. The data shown were quantified from 20 independent cells from three independently prepared samples. The p values were calculated by using the Student t-test. […]

Row | Binder | fold change in the fluorescence anisotropy values of f-LL-37 between 1.0 nM and 1000 nM of added peptide [3] | further results
1 | SKEKIGKEFKRIVQRIKDFLR [LL9-29] | – | fold change in the fluorescence anisotropy values of f-LL-37 between 1.0 nM and 1000 nM of added peptide [1]: 2.6 fold
2 | SKEKIGKEFKRIVQRIKDFLRNLVPRTES [LL8-37] | – | binding result [2]: binds
3 | B1 | 6.2 fold | –
4 | LLGDFFRKSKEKIGKEFKRIVQRIKDFLRNLVPRTES (also: rhodamine label, position not given here) [rhodamine-labeled LL-37 (rLL-37)] | – | binding result [4]: binds
5 | B2 | 6 fold | –
6 | B3 | 5 fold | –
7 | GLLRKGGEKIGEKLKKIGQKIKNFFQKLVPQPEQ (also called mouse peptide) [mCRAMP (murine ortholog of LL-37)] | 2.6 fold | –
